What all share (assay): Kinase Profiling Assay
Details in all cases: 100 μM

One test deals with T1, Mer(h) (Homo sapiens, UniProt Q12866).
T1 sequence (Q12866 21-999): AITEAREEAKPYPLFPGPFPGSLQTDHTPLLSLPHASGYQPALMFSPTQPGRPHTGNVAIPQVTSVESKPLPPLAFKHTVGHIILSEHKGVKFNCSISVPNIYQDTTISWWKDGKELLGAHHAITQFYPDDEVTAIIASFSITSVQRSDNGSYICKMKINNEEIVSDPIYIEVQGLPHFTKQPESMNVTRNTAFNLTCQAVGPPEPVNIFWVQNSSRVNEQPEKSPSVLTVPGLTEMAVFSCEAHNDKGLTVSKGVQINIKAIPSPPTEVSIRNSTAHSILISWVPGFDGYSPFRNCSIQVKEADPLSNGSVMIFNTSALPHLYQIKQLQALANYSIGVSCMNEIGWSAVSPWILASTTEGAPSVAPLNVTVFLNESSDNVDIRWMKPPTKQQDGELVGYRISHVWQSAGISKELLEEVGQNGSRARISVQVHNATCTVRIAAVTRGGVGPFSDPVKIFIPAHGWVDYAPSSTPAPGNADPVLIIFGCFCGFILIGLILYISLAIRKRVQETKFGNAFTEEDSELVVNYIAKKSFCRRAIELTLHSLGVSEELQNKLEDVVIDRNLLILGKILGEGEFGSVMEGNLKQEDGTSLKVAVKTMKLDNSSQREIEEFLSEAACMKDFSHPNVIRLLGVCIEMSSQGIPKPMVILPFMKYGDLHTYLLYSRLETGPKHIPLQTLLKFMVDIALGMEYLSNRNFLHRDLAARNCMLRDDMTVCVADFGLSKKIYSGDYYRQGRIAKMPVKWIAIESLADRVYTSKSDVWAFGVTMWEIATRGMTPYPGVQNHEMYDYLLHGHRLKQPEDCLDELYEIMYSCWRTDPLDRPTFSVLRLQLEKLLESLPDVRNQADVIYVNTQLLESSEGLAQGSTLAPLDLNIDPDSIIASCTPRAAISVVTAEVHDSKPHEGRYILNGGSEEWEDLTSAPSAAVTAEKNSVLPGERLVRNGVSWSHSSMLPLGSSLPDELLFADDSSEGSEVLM
It is filed as biochemical.

The target in a further test is ALK(h) (Homo sapiens, UniProt Q9UM73). Type of test: biochemical.
The next test deals with Abl(h) (Homo sapiens, UniProt P00519). Type of test: biochemical.
A further test deals with MELK(h) (Homo sapiens, UniProt Q14680). Type of test: biochemical.
The next test concerns MLCK(h). It is filed as biochemical, human.
The target of the next test is CaMKIIγ(h) (Homo sapiens, UniProt Q13555). Type of test: biochemical.
A further test has as its target T2, GRK7(h) (Homo sapiens, UniProt Q8WTQ7).
T2 sequence (Q8WTQ7 1-553): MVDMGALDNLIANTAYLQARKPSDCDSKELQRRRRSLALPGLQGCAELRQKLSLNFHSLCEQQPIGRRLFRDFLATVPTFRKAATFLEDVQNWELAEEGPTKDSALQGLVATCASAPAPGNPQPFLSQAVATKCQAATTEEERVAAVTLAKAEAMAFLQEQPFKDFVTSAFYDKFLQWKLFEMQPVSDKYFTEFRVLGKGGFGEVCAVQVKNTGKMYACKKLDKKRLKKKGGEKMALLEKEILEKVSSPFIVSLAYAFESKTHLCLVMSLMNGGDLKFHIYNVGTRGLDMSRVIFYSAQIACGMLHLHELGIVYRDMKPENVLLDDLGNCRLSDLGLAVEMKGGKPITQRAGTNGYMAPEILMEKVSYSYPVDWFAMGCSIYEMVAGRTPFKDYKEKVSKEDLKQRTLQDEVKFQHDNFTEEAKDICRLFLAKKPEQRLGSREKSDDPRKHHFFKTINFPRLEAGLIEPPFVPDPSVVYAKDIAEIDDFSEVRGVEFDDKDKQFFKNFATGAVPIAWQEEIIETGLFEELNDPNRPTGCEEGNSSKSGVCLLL
It is filed as biochemical.

The target of the next test is Fes(h) (Homo sapiens, UniProt P07332). Type of test: biochemical.
The next test addresses RIPK2(h) (Homo sapiens, UniProt O43353). Type of test: biochemical.
Another test concerns the target Fms(Y969C)(h) (Homo sapiens, UniProt P07333, Y969C). Type of test: biochemical.

Chain of RIPK2(h) (O43353 whole entry): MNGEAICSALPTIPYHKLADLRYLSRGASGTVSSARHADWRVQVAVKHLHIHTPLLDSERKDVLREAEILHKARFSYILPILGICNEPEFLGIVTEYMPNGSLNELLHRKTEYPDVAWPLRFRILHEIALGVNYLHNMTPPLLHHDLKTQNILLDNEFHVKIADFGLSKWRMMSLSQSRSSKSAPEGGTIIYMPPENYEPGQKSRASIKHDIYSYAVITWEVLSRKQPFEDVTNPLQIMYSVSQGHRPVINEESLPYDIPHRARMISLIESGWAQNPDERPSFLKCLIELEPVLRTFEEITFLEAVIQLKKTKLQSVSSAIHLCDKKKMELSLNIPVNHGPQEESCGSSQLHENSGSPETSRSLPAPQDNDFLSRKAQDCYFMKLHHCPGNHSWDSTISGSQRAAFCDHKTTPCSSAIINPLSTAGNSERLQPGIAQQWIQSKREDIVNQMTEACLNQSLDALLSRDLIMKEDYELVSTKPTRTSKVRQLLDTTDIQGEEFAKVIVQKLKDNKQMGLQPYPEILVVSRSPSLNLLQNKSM
Chain of Abl(h) (P00519 whole entry): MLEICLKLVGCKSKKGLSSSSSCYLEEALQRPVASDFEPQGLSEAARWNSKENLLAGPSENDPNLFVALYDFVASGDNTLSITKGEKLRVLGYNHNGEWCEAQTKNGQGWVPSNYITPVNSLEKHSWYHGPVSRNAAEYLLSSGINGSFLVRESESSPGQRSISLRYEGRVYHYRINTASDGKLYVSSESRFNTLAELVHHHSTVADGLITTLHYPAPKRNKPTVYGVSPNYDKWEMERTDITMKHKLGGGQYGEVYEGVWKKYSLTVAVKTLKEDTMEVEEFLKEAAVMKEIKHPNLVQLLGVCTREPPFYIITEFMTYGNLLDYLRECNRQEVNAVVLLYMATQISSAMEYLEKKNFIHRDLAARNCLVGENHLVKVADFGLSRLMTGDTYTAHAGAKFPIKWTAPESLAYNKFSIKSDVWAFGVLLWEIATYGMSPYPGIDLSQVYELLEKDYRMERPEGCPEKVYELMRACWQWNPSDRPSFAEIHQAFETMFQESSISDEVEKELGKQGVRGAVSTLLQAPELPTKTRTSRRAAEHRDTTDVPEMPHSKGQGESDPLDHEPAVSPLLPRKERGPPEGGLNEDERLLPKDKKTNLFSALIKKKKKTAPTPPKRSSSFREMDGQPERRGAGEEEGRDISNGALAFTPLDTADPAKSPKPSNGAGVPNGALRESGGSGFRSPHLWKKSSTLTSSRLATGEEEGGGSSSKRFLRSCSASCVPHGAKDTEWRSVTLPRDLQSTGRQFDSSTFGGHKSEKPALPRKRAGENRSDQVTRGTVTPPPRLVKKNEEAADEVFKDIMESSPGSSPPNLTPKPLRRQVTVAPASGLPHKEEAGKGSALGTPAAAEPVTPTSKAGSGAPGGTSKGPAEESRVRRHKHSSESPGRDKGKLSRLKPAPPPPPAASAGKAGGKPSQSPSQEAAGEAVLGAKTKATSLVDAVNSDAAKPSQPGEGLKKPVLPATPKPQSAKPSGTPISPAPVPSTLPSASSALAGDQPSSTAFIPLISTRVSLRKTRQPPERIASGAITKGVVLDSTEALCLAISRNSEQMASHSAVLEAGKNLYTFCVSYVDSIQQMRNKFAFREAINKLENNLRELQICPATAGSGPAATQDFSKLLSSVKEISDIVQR
Chain of MELK(h) (Q14680 whole entry): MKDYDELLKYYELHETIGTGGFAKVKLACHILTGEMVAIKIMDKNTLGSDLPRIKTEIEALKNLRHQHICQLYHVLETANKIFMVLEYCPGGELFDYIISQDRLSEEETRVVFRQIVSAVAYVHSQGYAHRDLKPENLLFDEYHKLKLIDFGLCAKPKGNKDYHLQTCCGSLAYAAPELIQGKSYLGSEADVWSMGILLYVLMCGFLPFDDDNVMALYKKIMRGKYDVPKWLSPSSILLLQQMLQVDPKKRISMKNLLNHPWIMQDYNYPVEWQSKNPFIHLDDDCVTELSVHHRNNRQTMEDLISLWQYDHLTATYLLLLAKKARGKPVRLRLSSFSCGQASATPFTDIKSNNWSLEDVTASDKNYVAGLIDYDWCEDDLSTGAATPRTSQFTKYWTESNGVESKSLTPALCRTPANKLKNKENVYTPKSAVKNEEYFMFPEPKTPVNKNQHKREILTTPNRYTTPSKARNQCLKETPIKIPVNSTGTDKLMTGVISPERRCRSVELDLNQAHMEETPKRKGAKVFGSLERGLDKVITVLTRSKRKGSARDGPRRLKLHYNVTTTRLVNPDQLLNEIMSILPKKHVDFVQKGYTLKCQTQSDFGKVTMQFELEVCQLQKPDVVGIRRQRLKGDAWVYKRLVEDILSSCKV
Chain of ALK(h) (Q9UM73 19-1620): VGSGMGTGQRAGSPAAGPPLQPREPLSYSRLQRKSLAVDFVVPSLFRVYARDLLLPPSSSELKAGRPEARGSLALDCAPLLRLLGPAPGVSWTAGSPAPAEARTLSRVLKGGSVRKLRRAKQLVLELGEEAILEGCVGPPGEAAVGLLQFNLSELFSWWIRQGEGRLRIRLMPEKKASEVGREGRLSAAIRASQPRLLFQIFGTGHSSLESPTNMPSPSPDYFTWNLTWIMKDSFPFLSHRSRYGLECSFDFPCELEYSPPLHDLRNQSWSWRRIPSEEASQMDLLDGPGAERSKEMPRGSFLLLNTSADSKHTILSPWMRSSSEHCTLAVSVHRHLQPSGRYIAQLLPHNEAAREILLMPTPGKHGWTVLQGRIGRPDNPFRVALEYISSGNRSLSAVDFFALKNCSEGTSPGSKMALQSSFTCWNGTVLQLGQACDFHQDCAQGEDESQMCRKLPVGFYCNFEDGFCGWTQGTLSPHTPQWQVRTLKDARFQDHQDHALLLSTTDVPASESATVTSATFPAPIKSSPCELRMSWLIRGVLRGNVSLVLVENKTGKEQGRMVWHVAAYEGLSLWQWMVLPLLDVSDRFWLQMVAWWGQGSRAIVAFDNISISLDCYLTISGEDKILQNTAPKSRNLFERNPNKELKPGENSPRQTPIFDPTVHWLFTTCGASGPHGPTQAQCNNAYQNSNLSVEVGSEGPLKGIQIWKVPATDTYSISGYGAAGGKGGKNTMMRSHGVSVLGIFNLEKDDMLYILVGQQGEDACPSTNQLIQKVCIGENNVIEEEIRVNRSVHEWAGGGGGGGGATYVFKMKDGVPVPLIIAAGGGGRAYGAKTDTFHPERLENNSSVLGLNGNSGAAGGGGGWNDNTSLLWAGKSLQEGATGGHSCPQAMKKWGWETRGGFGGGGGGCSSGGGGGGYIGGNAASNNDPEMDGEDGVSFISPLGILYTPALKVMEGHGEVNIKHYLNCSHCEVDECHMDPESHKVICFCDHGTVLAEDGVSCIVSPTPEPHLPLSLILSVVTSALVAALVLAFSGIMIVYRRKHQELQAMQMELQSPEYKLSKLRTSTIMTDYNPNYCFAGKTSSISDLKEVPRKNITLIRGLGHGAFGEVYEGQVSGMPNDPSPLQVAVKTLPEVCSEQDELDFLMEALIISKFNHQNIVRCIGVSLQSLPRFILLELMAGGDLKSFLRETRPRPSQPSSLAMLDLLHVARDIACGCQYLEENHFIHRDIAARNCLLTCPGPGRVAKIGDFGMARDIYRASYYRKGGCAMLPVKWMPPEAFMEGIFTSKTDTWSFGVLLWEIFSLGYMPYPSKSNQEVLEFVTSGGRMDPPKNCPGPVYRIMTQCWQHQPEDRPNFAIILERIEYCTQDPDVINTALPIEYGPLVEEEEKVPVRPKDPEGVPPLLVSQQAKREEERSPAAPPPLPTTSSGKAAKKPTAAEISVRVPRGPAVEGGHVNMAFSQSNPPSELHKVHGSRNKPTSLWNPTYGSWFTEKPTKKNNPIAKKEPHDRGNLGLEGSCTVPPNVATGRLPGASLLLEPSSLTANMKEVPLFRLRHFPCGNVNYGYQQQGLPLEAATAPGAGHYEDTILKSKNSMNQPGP
Chain of Fes(h) (P07332 whole entry): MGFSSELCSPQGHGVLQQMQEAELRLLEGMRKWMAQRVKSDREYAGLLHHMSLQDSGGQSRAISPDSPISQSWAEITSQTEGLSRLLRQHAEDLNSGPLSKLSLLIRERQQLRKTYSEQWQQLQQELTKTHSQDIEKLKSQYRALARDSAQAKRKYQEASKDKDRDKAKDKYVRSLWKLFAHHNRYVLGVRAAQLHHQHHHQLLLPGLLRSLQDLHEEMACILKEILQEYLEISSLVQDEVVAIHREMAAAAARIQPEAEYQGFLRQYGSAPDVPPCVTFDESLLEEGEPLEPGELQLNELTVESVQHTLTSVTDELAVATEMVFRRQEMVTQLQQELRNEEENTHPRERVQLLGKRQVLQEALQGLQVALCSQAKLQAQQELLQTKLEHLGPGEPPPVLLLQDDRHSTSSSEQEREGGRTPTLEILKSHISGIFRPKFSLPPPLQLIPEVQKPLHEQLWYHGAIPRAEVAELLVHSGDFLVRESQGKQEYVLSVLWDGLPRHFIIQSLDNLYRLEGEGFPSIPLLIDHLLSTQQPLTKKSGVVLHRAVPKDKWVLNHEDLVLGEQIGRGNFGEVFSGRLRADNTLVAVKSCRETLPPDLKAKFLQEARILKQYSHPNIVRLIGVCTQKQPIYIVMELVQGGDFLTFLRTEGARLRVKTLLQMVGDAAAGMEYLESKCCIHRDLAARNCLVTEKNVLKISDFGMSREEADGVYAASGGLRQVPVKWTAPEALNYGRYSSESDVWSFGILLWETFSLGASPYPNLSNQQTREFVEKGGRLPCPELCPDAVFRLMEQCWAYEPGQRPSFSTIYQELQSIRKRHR

Regarding HRRIKAWLKKIKALARQLGVAA [MMI-0500], the “% activity” value worked out at 17% in the test with Mer(h); 12% with ALK(h); 16% with Abl(h); 0% with MELK(h); 0% in the test on MLCK(h); 3% with CaMKIIγ(h). Further, the “% activity” value is recorded as 93% in the test with GRK7(h), 23% with Fes(h) and 30% with RIPK2(h).
Take YARAAARQARAKALNRQLGVA [MMI-0200]: the “% activity” value in the test with Mer(h) turned out to be 90%; with Fms(Y969C)(h), 88%; in the test with ALK(h), 95%; in the test with MELK(h), 59%; in the test with MLCK(h), 103%; in the test with CaMKIIγ(h) it was 94%. For the same sequence, the “% activity” value in the test with GRK7(h) worked out at 124%; with Fes(h), 74%; with RIPK2(h), 98%.
In the case of KAFAKLAARLYRKALARQLGVAA [MMI-0400], the “% activity” value is recorded as 50% with Mer(h); 91% with Fms(Y969C)(h); 16% with ALK(h); 84% in the test with Abl(h); 17% with MELK(h); 1% with MLCK(h). The “% activity” value stood at 3% with CaMKIIγ(h), 100% with GRK7(h), 16% with Fes(h) and 98% with RIPK2(h).
For the sequence FAKLAARLYRKALARQLGVAA [MMI-0300], the “% activity” value with Mer(h) is 52%; with Fms(Y969C)(h), 72%; with ALK(h), 19%; with Abl(h), 69%; with MELK(h), 16%; in the test on MLCK(h), 2%. In addition, the “% activity” value with CaMKIIγ(h) was found to be 5%; with GRK7(h), 122%; with Fes(h) it was 20%; with RIPK2(h), 97%.

The record behind these values is patent publication US20190134153A1, “IMMUNOMODULATORY EFFECT OF INHALED KINASE INHIBITOR PEPTIDES IN LUNG” (MOERAE MATRIX, INC., priority 2017, published 2019).
